Here are results for eleven molecules from patent publication US20190263882A1 (Scripps Research, published 2019).

The target of assay [1] is T1, relaxin receptor (LGR7).
T1 sequence (Q9HBX9 whole entry, species assumed, looked up): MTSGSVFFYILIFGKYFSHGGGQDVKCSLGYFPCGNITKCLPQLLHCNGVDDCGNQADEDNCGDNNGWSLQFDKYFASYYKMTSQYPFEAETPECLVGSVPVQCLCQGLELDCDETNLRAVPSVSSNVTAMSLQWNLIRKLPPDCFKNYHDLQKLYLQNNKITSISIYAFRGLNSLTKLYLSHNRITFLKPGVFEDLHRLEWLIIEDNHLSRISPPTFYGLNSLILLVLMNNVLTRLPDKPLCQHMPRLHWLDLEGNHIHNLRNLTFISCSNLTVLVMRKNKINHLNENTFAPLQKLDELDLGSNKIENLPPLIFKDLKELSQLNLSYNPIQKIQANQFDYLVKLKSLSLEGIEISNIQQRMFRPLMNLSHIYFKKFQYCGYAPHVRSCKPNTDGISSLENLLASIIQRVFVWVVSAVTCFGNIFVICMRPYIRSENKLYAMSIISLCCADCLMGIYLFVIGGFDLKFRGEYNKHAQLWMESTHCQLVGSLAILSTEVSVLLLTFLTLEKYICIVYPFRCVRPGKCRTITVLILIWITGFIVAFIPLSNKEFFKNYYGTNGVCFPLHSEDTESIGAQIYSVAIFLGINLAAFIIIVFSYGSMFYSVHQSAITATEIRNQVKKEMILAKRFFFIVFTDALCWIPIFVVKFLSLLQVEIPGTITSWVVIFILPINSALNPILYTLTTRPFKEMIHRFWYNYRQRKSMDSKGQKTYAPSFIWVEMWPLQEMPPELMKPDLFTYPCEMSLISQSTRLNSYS
The assay is described as follows: cell-based or functional assay.

The target of assay [2] is T2, RSV F protein (UniProt P03420 26-524). The assay is described as follows: ELISA, 100 ng/well RSV F protein coated, HRP anti-human IgG (Fc specific), QuantaBlu fluorescence (10 min).
Procedure: Optimized palivizumab-relaxin fusion protein antibodies were tested for binding to RSV by ELISA assay. 100 ng/well RSV F protein was coated on 96-well plate in PBS 4° C. overnight. The plate was blocked with 2% BSA/PBS at room temperature for 1 hr, then washed twice with 200 μL PBS. The fusion antibodies were incubated at various concentrations (as indicated in FIG. 4) in 2% BSA/PBS at room temperature for 1 hr. Plates were washed with PBS (0.025% Tween-20 in PBS) four times and washed with PBS one time. […] Binding was quantified using Spectramax fluorescence plate reader with excitation at 325 nm and emission at 420 nm. Binding Kd values were determined (Table 14).
The target of assay [3] is T2, RSV F protein. In words: plate binding assay, RSV F protein coated, anti-human IgG (Fc specific) detection, fluorescence read at 25 min.
Assay [4] has as its target T2, RSV F protein. In words: plate binding assay, RSV F protein coated, anti-human IgG (Fc specific) detection, fluorescence read at 50 min.
Another assay has as its target LGR8. In words: cell-based or functional assay.
Assay [5] has as its target T1, relaxin receptor (LGR7). In words: cell-based or functional assay. The source holds these as a separate data set.

Positions count from the first letter of the chain named.

T2 sequence (P03420 26-524): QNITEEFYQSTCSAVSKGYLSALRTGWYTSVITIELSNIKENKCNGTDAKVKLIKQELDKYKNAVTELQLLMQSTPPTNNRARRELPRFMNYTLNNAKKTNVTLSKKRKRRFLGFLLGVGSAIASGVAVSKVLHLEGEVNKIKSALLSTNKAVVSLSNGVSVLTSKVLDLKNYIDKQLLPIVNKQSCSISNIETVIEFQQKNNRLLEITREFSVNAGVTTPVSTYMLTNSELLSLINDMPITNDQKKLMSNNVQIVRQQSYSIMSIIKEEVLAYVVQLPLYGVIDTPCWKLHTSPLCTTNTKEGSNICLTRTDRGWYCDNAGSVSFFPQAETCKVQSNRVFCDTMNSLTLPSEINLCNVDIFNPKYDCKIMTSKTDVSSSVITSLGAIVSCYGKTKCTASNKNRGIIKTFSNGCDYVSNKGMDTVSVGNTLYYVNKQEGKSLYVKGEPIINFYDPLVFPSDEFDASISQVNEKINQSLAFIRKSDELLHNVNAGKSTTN
Chain of LGR8 (Q8WXD0 whole entry): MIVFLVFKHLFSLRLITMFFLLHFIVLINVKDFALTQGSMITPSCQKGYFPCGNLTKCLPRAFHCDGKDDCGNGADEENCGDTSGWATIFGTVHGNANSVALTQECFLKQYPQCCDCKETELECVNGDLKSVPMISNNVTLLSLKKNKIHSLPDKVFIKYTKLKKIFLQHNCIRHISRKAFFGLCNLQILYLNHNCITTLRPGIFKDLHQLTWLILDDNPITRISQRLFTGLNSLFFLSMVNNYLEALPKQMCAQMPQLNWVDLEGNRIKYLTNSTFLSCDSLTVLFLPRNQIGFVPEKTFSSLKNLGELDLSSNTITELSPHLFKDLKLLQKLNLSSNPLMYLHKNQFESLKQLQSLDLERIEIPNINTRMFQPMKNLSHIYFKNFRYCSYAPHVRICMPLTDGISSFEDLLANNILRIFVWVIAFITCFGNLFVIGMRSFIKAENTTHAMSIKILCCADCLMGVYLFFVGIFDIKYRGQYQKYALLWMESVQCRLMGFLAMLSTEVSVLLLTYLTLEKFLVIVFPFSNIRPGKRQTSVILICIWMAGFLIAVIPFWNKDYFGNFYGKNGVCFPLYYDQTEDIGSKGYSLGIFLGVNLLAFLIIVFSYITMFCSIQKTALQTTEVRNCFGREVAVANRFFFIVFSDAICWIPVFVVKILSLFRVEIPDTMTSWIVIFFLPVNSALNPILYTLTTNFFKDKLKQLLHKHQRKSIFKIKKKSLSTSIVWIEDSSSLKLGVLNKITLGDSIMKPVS

B1: RLX304 (antibody, human IgG1, kappa)
heavy: DSWMEEVIKLCGRELVRAQIAICGMSTWSGGGGSGGGGQLYSALANKCCHVGCTKRSLARFCGGGGSGGGGSGGGGSGQVTLRESGPALVKPTQTLTLTCTFSGFSLSTSGMSVGWIRQPPGKALEWLADIWWDDKKDYNPSLKSRLTISKDTSKNQVVLKVTNMDPADTATYYCARSMITNAYFDVWGAGTTVTVSSASTKGPSVFPLAPSSKSTSGGTAALGCLVKDYFPEPVTVSWNSGALTSGVHTFPAVLQSSGLYSLSSVVTVPSSSLGTQTYICNVNHKPSNTKVDKKVEPKSCDKTHTCPPCPAPPVAGPSVFLFPPKPKDTLMISRTPEVTCVVVDVSHEDPEVKFNWYVDGVEVHNAKTKPREEQYNSTYRVVSVLTVLHQDWLNGKEYKCKVSNKGLPSSIEKTISKAKGQPREPQVYTLPPSRDELTKNQVSLTCLVKGFYPSDIAVEWESNGQPENNYKTTPPVLDSDGSFFLYSKLTVDKSRWQQGNVFSCSVMHEALHNHYTQKSLSLSPGK
light: DIQMTQSPSTLSASVGDRVTITCKCQLSVGYMHWYQQKPGKAPKLLIYDTSKLASGVPSRFSGSGSGTAFTLTISSLQPDDFATYYCFQGSGYPFTFGGGTKLEIKRTVAAPSVFIFPPSDEQLKSGTASVVCLLNNFYPREAKVQWKVDNALQSGNSQESVTEQDSKDSTYSLSSTLTLSKADYEKHKVYACEVTHQGLSSPVTKSFNRGEC
In general, Kd refers to the concentration at which binding is half-saturated. High values mean weaker binding, low ones tighter binding. In the case of B1, the “EC50, CRE-luciferase reporter assay” value with relaxin receptor (LGR7) [1] came out at 0.078 nM. In addition, binding in the assay with RSV F protein [2] was characterised by a dissociation constant (Kd) of 38.2 nM.

B2: Palivizumab null (antibody, human IgG1, kappa)
heavy: QVTLRESGPALVKPTQTLTLTCTFSGFSLSTSGMSVGWIRQPPGKALEWLADIWWDDKKDYNPSLKSRLTISKDTSKNQVVLKVTNMDPADTATYYCARSMITNWYFDVWGAGTTVTVSSASTKGPSVFPLAPSSKSTSGGTAALGCLVKDYFPEPVTVSWNSGALTSGVHTFPAVLQSSGLYSLSSVVTVPSSSLGTQTYICNVNHKPSNTKVDKKVEPKSCDKTHTCPPCPAPPVAGPSVFLFPPKPKDTLMISRTPEVTCVVVDVSHEDPEVKFNWYVDGVEVHNAKTKPREEQYNSTYRVVSVLTVLHQDWLNGKEYKCKVSNKGLPSSIEKTISKAKGQPREPQVYTLPPSRDELTKNQVSLTCLVKGFYPSDIAVEWESNGQPENNYKTTPPVLDSDGSFFLYSKLTVDKSRWQQGNVFSCSVMHEALHNHYTQKSLSLSPGK
light: B1 light with A69E
notes: also called null palivizumab antibody
As for B2, the values for the Kd with RSV F protein [3] and with RSV F protein [4] were 0.8 nM and 0.49 nM, respectively.

B3: RLX301 (antibody, human IgG1, kappa)
heavy: B1 heavy with N182F, A183G, Y184G
light: B1 light
For the molecule B3, in the assay with relaxin receptor (LGR7) [1], the “EC50, CRE-luciferase reporter assay” value was found to be 0.072 nM. This molecule also gave a Kd in the assay with RSV F protein [2] of 79.3 nM.

B4: SCX2: palivizumab(NH2, 16GS)-relaxin2(9GS) and palivizumab L (antibody, human IgG1, kappa)
heavy: B1 heavy with A183G
light: B1 light with A69E
For the molecule B4, the Kd with RSV F protein [3] is 14.4 nM; with RSV F protein [4], 9.03 nM. The “EC50, CRE-luciferase reporter assay” value with relaxin receptor (LGR7) [1] came out at 0.0612 nM. The “LGR8” value in the assay with LGR8 is 327 nM. Further, the “LGR7” value with relaxin receptor (LGR7) [5] came to 0.115 nM.

B5: RLX303 (antibody)
heavy: B1 heavy with N182F, A183G, Y184G
light: B1 light with S91N
B5 displayed an equilibrium dissociation constant (Kd) in the assay with RSV F protein [2] of 52.1 nM.

B6: SC3: Palivizumab (null, 16GS)-relaxin2(9GS) and Palivizumab L (antibody, human IgG1, kappa)
heavy: B1 heavy with A183W
light: B1 light with A69E
Consider B6, for which the dissociation constant (Kd) was determined as 0.425 nM with RSV F protein [3] and 0.249 nM with RSV F protein [4]. In addition, the “LGR8” value in the assay with LGR8 is 177 nM. The “LGR7” value with relaxin receptor (LGR7) [5] came out at 0.205 nM.

B7: SCX3: palivizumab(NH3, 16GS)-relaxin2(9GS) and palivizumab L (antibody, human IgG1, kappa)
heavy: B1 heavy with N182F, A183G, Y184G
light: B1 light with A69E
For B7, the equilibrium dissociation constant (Kd) was 163 nM with RSV F protein [3] and 107 nM in the assay with RSV F protein [4]. For the same molecule, the “EC50, CRE-luciferase reporter assay” value in the assay with relaxin receptor (LGR7) [1] worked out at 0.129 nM. The “LGR8” value with LGR8 came out at 16300 nM. Further, the “LGR7” value with relaxin receptor (LGR7) [5] turned out to be 0.115 nM.

B8: SCX1: palivizumab(NH1, 16GS)-relaxin2(9GS) and palivizumab L (antibody, human IgG1, kappa)
heavy: B1 heavy
light: B1 light with A69E
For the molecule B8, the dissociation constant Kd with RSV F protein [3] is 112 nM; in the assay with RSV F protein [4], 83.1 nM. Besides, in the assay with relaxin receptor (LGR7) [1], the “EC50, CRE-luciferase reporter assay” value was 0.0691 nM. For the same molecule, the “LGR8” value in the assay with LGR8 turned out to be 939 nM. Further, the “LGR7” value with relaxin receptor (LGR7) [5] came out at 0.129 nM.

B9: RLX300 (no mutations) (antibody, human IgG1, kappa)
heavy: B1 heavy with A183W
light: B1 light
notes: also called SC3.s
As to B9, the Kd with RSV F protein [2] worked out at 0.301 nM. This counts as sub-nanomolar.

B10: RLX306 (antibody)
heavy: B1 heavy
light: B1 light with S91N
B10 yielded an equilibrium dissociation constant (Kd) with RSV F protein [2] of 82.7 nM. Compared with the last molecule, the Kd is about 270-fold higher.

B11: RLX305 (antibody)
heavy: B1 heavy
light: B1 light with G90Y
B11 came in with a Kd in the assay with RSV F protein [2] of 75.2 nM.
